Experimental data taken from the supplement of paper PMC10126150.
± gives the standard deviation of the averaged measurements.

System: ATP
Assay: switch fluorescence ratio, 500 uM ATP over buffer (Cy3 cluster intensity, sum of 5 cycles each) (fold (ratio)); higher = stronger signal-on switching upon ATP binding; sequences stand for … in TCGTCGGCAGCGTCAGATGTGTATAAGAGACAGTTTTTTTTTTTTTTTTTTTTTTTTT…TC
Conditions: aptamer strand: ATP DNA aptamer (quencher-CACCTGGGGGAGTATTGCGGAGGAAGG + anchor), 100 nM annealed; ATP concentration: 500 uM
Outline: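 Cy3-labelled switching-strand clusters on a modified Illumina MiSeq flow-cell were annealed to 100 nM quencher-labelled ATP aptamer, imaged in selection buffer, then imaged after 15 min with 500 uM ATP at 22 °C. Five buffer/ATP cycles ran, with NaOH stripping and re-annealing between them. The fluorescence ratio is summed target-cycle over summed buffer-cycle Cy3 intensity per cluster, averaged per switch-domain sequence. Clusters outside 100-1000 RFU were excluded.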
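Note: ATP exposure 15 min at 22 °C before imaging.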

| Sequence | switch fluorescence ratio |
| --- | --- |
| TTTCATGTTA | 0.987 ± 0.0084 |
| AAGGATAAAC | 1.01 ± 0.039 |
| TGGATGATTG | 0.984 ± 0.022 |
| AGTGGCACCG | 1.01 ± 0.015 |
| GGAAAAAGGA | 0.9423 ± 0.0081 |
| TAATAATCAA | 1.02 ± 0.051 |
| TTGTGGATGG | 0.978 ± 0.039 |
| ACCAGTAGGT | 1.01 ± 0.035 |
| TTTTTAGGTT | 1.04 ± 0.064 |
| TGCTTCGGGA | 1.1288 ± 0.0008 |
| GTGTCGC | 0.991 ± 0.047 |
| GTTTTTTACG | 0.998 ± 0.012 |
| TCTTTGGAAC | 0.997 ± 0.034 |
| TTGGAAGATT | 0.9881 ± 0.003 |
| GGGTGCCGTG | 1.03 ± 0.047 |
| AAAACAAAAT | 1.05 ± 0.026 |
| TAGGAACAGC | 0.98 ± 0.012 |
| TCTGATAGTT | 0.998 ± 0.021 |
| GAATCAGCGG | 0.989 ± 0.018 |
| TGATGTTGT | 1.005 ± 0.0071 |
| AGAGGGATAG | 1.19 ± 0.37 |
| TTGCGATGGT | 1.02 ± 0.012 |
| TAACACCTCT | 0.988 ± 0.068 |

| Sequence | switch fluorescence ratio |
| --- | --- |
| CTGTTTAAGG | 0.986 ± 0.013 |
| GGGTAGTGTA | 0.995 ± 0.012 |
| TCGTGTTCTT | 0.95 ± 0.028 |
| TCTGTCCTTT | 0.9708 ± 0.0028 |
| CAAGCCATCA | 0.9994 ± 0.0092 |
| TTCTACTTTT | 1.01 ± 0.053 |
| AAGGCAAGGG | 1.01 ± 0.028 |
| GCTGTACGAT | 1.16 ± 0.012 |
| AAATGTTTAC | 1.034 ± 0.0095 |
| TATAAATTGC | 1.01 ± 0.016 |
| CTTAGTTAGT | 0.993 ± 0.01 |
| AACGAAGTCG | 1 ± 0.015 |
| GGGGGGATAG | 1 ± 0.031 |
| TGGGAGGATG | 1.01 ± 0.039 |
| CCTATTCTGA | 0.97 ± 0.068 |
| TATGGGCCTA | 0.971 ± 0.053 |
| AATGATTGGA | 1.02 ± 0.041 |
| ATTCAGGTC | 1 ± 0.038 |
| GGTGTGGTCA | 0.977 ± 0.035 |
| GCAACAATGG | 1.08 ± 0.02 |
| GTAGGGGCTG | 1 ± 0.074 |
| CAATTGGGTG | 1.06 ± 0.022 |
| ACTGTACCGG | 1.45 ± 0.04 |

| Sequence | switch fluorescence ratio |
| --- | --- |
| TATTTTTACA | 1.012 ± 0.0086 |
| ATGTAATATG | 0.992 ± 0.024 |
| TTGAGGGTTC | 0.96 ± 0.022 |
| GGCCTCTTTT | 0.966 ± 0.039 |
| TATGGGCTGG | 0.979 ± 0.049 |
| ATTGTTGTAG | 0.985 ± 0.00069 |
| CGGTGTTTGG | 0.972 ± 0.015 |
| CAATTGGATG | 1 ± 0.073 |
| TGACGAAGGA | 1.23 ± 0.3 |
| GATTCGCCTG | 0.99 ± 0.016 |
| TTTTTTTAAA | 0.999 ± 0.027 |
| TTCGGTAAGG | 1.02 ± 0.013 |
| CTTTATAGGA | 0.9944 ± 0.0056 |
| GAGGGCACGA | 1.09 ± 0.086 |
| TTAATTTGTT | 0.988 ± 0.042 |
| ATATTAAAAC | 0.988 ± 0.034 |
| GTTGTTAGAG | 0.989 ± 0.021 |
| CGAATTAGGT | 1.03 ± 0.019 |
| TGAATAAATT | 1.02 ± 0.015 |
| ACCGAGCAAG | 4.12 ± 0.19 |
| TTTTTAGAGG | 0.97 ± 0.041 |
| GTGGGGCTGG | 1.008 ± 0.0055 |
| TTTTGCCATG | 1.04 ± 0.067 |

| Sequence | switch fluorescence ratio |
| --- | --- |
| GAATGTAGGT | 0.993 ± 0.037 |
| AGGAGCTTTC | 1.08 ± 0.039 |
| TTGCCAATCC | 1.04 ± 0.04 |
| GAAGTAGGTC | 1.02 ± 0.041 |
| TGGAAGGTTG | 0.9808 ± 0.0066 |
| TTTAGGGTTG | 0.988 ± 0.022 |
| AAATTCATAC | 1.052 ± 0.0078 |
| TAATCCAGAA | 1.01 ± 0.082 |
| ATGTTCATGG | 0.99 ± 0.043 |
| TCACACGGGG | 1.03 ± 0.061 |
| GAAAGTGCAT | 0.999 ± 0.042 |
| GGATTTTGGA | 1 ± 0.018 |
| TTCAGGATTA | 0.9939 ± 0.0091 |
| TCAATGAAGC | 0.988 ± 0.012 |
| TGGTATAATC | 1.001 ± 0.0038 |
| TTATGTGGTG | 0.974 ± 0.014 |
| TTTACGGCTA | 1.06 ± 0.014 |
| GTTGGTGTTT | 0.985 ± 0.016 |
| CACGGGTTCC | 1.03 ± 0.041 |
| ATTCCATGGT | 0.9909 ± 0.0052 |
| AACCGTTGGT | 1.01 ± 0.014 |
| GTAAGGGGTC | 1 ± 0.028 |
| CTGAATTAAG | 0.99 ± 0.016 |

| Sequence | switch fluorescence ratio |
| --- | --- |
| CCGCGACAGG | 3.04 ± 0.22 |
| GGGGCATGTA | 1 ± 0.019 |
| TTTTGTGGCA | 0.987 ± 0.014 |
| AGGTACGAGG | 1.006 ± 0.003 |
| TGTTGGGATG | 1.01 ± 0.02 |
| CCATTCCCAT | 1.26 ± 0.28 |
| TGCTATGGGT | 0.975 ± 0.023 |
| GTATGCGTGT | 1.04 ± 0.034 |
| AATCGTGTAT | 0.983 ± 0.035 |
| ATTATAGTCG | 1.01 ± 0.036 |
| TTATGTGAGA | 1.01 ± 0.044 |
| TTTATTAGCT | 1.02 ± 0.043 |
| ACGTTTGTAT | 1 ± 0.031 |
| CCTTTTGTGG | 1.015 ± 0.0068 |
| CCCCGGTTA | 1.46 ± 0.12 |
| TTGGGAGAAG | 0.993 ± 0.051 |
| GGCTGTCGGA | 0.997 ± 0.0034 |
| TTACATGCTA | 1 ± 0.032 |
| CTCGTAGGGG | 1.01 ± 0.039 |
| GCATGTACTC | 3.36 ± 0.63 |
| TTATTTAATT | 0.998 ± 0.027 |
| TGTGTAAGGT | 1.02 ± 0.025 |
| TTCTGAGGGA | 1 ± 0.03 |

| Sequence | switch fluorescence ratio |
| --- | --- |
| AGTAAAGTTG | 0.991 ± 0.024 |
| TGGGTAAGCA | 1.03 ± 0.023 |
| AACAACTCTC | 1.06 ± 0.017 |
| TATGTTACCA | 0.977 ± 0.046 |
| TCATGAGGGG | 0.972 ± 0.036 |
| AGCTTTTTTA | 1.02 ± 0.015 |
| CGAGGATAAC | 1.03 ± 0.043 |
| AGGTGTGCGC | 1.01 ± 0.07 |
| ATTGGAATTA | 0.985 ± 0.047 |
| ATCCGGGTGT | 2.74 ± 0.17 |
| GTGGAAGTCG | 0.966 ± 0.017 |
| TAAGTTTTTT | 0.99 ± 0.02 |
| CGTGTACATC | 1.01 ± 0.011 |
| ATGATGTCGG | 1.03 ± 0.033 |
| CCCGCAGTGT | 4.3 ± 1.4 |
| CCGGATTTTG | 0.981 ± 0.012 |
| TTAAAAGGAG | 1.01 ± 0.044 |
| TTTGGGCACG | 1.05 ± 0.017 |
| AGGTGGGCTG | 0.963 ± 0.024 |
| GCAGTTAGCC | 1.01 ± 0.034 |
| GTGGAAGGGG | 0.988 ± 0.03 |
| AAACACGGTG | 1.19 ± 0.17 |
| GTAATAAGCG | 1.007 ± 0.00016 |

| Sequence | switch fluorescence ratio |
| --- | --- |
| ATAAAAGTCC | 0.979 ± 0.017 |
| GTCGGGGGAT | 1.02 ± 0.014 |
| TCAATGAGGG | 1.01 ± 0.03 |
| TTTATCCAAT | 0.984 ± 0.037 |
| GGGGGTCG | 1.03 ± 0.081 |
| TGATTGGGTT | 0.975 ± 0.022 |
| ATGGATTTTT | 1.012 ± 0.0015 |
| TCCTGGGTTG | 0.99 ± 0.066 |
| TCTTCACGTC | 1.003 ± 0.0029 |
| GAGGTTCGGT | 1.019 ± 0.0037 |
| GTGCGCATTG | 1.03 ± 0.046 |
| AAATCGTTGT | 0.975 ± 0.043 |
| TTAAATTCGC | 0.999 ± 0.0094 |
| GCTATCCCTG | 1.05 ± 0.018 |
| TATATTAGGT | 1.13 ± 0.1 |
| TGGCTTGGTA | 1 ± 0.02 |
| TATTTGGCTT | 1 ± 0.025 |
| TATTTTATGT | 1.021 ± 0.0042 |
| ATTTTGCGTG | 0.98 ± 0.029 |
